Assay results: US20260167959A1, “APTAZYME-BASED REGULATABLE GENE EXPRESSION SYSTEMS” (REJUVENATE BIO INC, priority 2022, published 2026)

B1: RA411 (nucleic acid)
DNA: GCGCGTCCTGGATTCGCGGAAACGCGTACATCCAGCTGACGAGTCCCAAATAGCGAGAATACCAGCATCGTCTTGATGCCCTTGGAAGTCTCGGACGAAACGCGC
modifications: expressed or natural sequence
B2: RA415 (nucleic acid)
DNA: GCGCGTCCTGGATTCGCGGACCGGAATACCAGCATCGTCTTGATGCCCTTGGAAGTCCGGAACGCGTACATCCAGCTGACGAGTCCCAAATAGGACGAAACGCGC
modifications: expressed or natural sequence
B3: RA406 (nucleic acid)
DNA: GCGCGTCCTGGATTCGCGGAAACGCGTACATCCAGCTGACGAGTCCCCGGAATACCAGCATCGTCTTGATGCCCTTGGAAGTCCGAAATAGGACGAAACGCGC
modifications: expressed or natural sequence
B4: RA410 (nucleic acid)
DNA: GCGCGTCCTGGATTCGCGGAAACGCGTACATCCAGCTGACGAGTCCCAGTGATACCAGCATCGTCTTGATGCCCTTGGCAGCACTAAATAGGACGAAACGCGC
modifications: expressed or natural sequence
B5: RA420 (nucleic acid)
DNA: GCGCGTCCTGGATTCGCGGAAACGGAGAATACCAGCATCGTCTTGATGCCCTTGGAAGTCTCCGTACATCCAGCTGACGAGTCCCAAATAGGACGAAACGCGC
modifications: expressed or natural sequence
B6: RA403 (nucleic acid)
DNA: GCGCGTCCTCGGAATACCAGCATCGTCTTGATGCCCTTGGAAGTCCGGGATTCGCGGAAACGCGTACATCCAGCTGACGAGTCCCAAATAGGACGAAACGCGC
modifications: expressed or natural sequence
B7: RA405 (nucleic acid)
DNA: GCGCGTCCTGGATTCGCGGAAACGCGTACGAGAATACCAGCATCGTCTTGATGCCCTTGGAAGTCTCGCATCCAGCTGACGAGTCCCAAATAGGACGAAACGCGC
modifications: expressed or natural sequence
B8: RA418 (nucleic acid)
DNA: GCGCGTCCTGGATTCGCGGAAACGCGTACATCGAGAATACCAGCATCGTCTTGATGCCCTTGGAAGTCTCGCCAGCTGACGAGTCCCAAATAGGACGAAACGCGC
modifications: expressed or natural sequence
B9: RA419 (nucleic acid)
DNA: GCGCGTCCTGGATTCGCGGAAACGCGTACATCCAGCTGACGAGTCCCAAATAGGACGAAAGAATACCAGCATCGTCTTGATGCCCTTGGAAGTCTACGCGC
modifications: expressed or natural sequence
B10: RA408 (nucleic acid)
DNA: GCGCGTCCTGGATTCGCGGAAACGCGGGAATACCAGCATCGTCTTGATGCCCTTGGAAGTCCTACATCCAGCTGACGAGTCCCAAATAGGACGAAACGCGC
modifications: expressed or natural sequence
B11: RA401 (nucleic acid)
DNA: GCGCGTCCTGGATTCGCGGAAACGCGCGGAATACCAGCATCGTCTTGATGCCCTTGGAAGTCCGTACATCCAGCTGACGAGTCCCAAATAGGACGAAACGCGC
modifications: expressed or natural sequence
B12: RA413 (nucleic acid)
DNA: GCGCGTCCTGGATTCGCGGAAACGCGTAGAATACCAGCATCGTCTTGATGCCCTTGGAAGTCTACATCCAGCTGACGAGTCCCAAATAGGACGAAACGCGC
modifications: expressed or natural sequence
B13: RA422 (nucleic acid)
DNA: GCGCGTCCTGGATTCGCGGAAACGCGTACATCCAGCTGACGAGTCCCAAATAGGACGACGGAATACCAGCATCGTCTTGATGCCCTTGGAAGTCCGAACGCGC
modifications: expressed or natural sequence
B14: RA414 (nucleic acid)
DNA: GCGCGTCCTGGATTCGCGGAAACGCGTACATCCAGCTGACGAGTCCCCCGGAATACCAGCATCGTCTTGATGCCCTTGGAAGTCCGGAAATAGGACGAAACGCGC
modifications: expressed or natural sequence
B15: RA423 (nucleic acid)
DNA: GCGCGTCCTGGATTCGCGGAAACGCGTACATCCAGCTGACGAGCCGGAATACCAGCATCGTCTTGATGCCCTTGGAAGTCCGGTCCCAAATAGGACGAAACGCGC
modifications: expressed or natural sequence
B16: RA425 (nucleic acid)
DNA: GCGCGTCCTGGATTCGCGGAAACGCGTACAGGAATACCAGCATCGTCTTGATGCCCTTGGAAGTCCTCCAGCTGACGAGTCCCAAATAGGACGAAACGCGC
modifications: expressed or natural sequence
B17: RA417 (nucleic acid)
DNA: GCGCGTCCTGGATTCGCGGAAACGCGTACATCCAGCTGACGAGTCCCAAATCGGAATACCAGCATCGTCTTGATGCCCTTGGAAGTCCGAGGACGAAACGCGC
modifications: expressed or natural sequence
B18: RA416 (nucleic acid)
DNA: GCGCGTCCTGGACGGAATACCAGCATCGTCTTGATGCCCTTGGAAGTCCGTTCGCGGAAACGCGTACATCCAGCTGACGAGTCCCAAATAGGACGAAACGCGC
modifications: expressed or natural sequence
B19: RA402 (nucleic acid)
DNA: GCGCGTCCTGGATTCGAGAATACCAGCATCGTCTTGATGCCCTTGGAAGTCTCGCGCGGAAACGCGTACATCCAGCTGACGAGTCCCAAATAGGACGAAACGCGC
modifications: expressed or natural sequence
B20: RA412 (nucleic acid)
DNA: GCGCGTCCTGGATTCGCGGAGTGATACCAGCATCGTCTTGATGCCCTTGGCAGCACTAAACGCGTACATCCAGCTGACGAGTCCCAAATAGGACGAAACGCGC
modifications: expressed or natural sequence
B21: RA424 (nucleic acid)
DNA: GCGCGTCCTGGATTCGCGGAAACGCGTACATCCAGCTGCGAGAATACCAGCATCGTCTTGATGCCCTTGGAAGTCTCGACGAGTCCCAAATAGGACGAAACGCGC
modifications: expressed or natural sequence
B22: RA421 (nucleic acid)
DNA: GCGCGTCCTGGATTCGCGGAAAGAGAATACCAGCATCGTCTTGATGCCCTTGGAAGTCTCCGCGTACATCCAGCTGACGAGTCCCAAATAGGACGAAACGCGC
modifications: expressed or natural sequence
B23: RA409 (nucleic acid)
DNA: GCGCGTCCTGGATTCGCCGAGAATACCAGCATCGTCTTGATGCCCTTGGAAGTCTCGGGAAACGCGTACATCCAGCTGACGAGTCCCAAATAGGACGAAACGCGC
modifications: expressed or natural sequence
B24: RA407 (nucleic acid)
DNA: GCGCGTCCTGGATTCGCGGAAACGCGTACATCCAGCTGACGAGTCCCAAATAGGACGGAATACCAGCATCGTCTTGATGCCCTTGGAAGTCCGAAACGCGC
modifications: expressed or natural sequence
B25: RA404 (nucleic acid)
DNA: GCGCGTCCTGGATTCGCGGAAGGAATACCAGCATCGTCTTGATGCCCTTGGAAGTCCACGCGTACATCCAGCTGACGAGTCCCAAATAGGACGAAACGCGC
modifications: expressed or natural sequence
B26: RA040 (nucleic acid)
DNA: GCGCGTCCTGGATTCGCGAGAATACCAGCATCGTCTTGATGCCCTTGGAAGTCTGAAACGCGTACATCCAGCTGACGAGTCCCAAATAGGACGAAACGCGC
modifications: expressed or natural sequence
B27: RA041 (nucleic acid)
DNA: GCGCGTCCTGGATTCGCGGAAACGCGAGTGATACCAGCATCGTCTTGATGCCCTTGGCAGCACTTACATCCAGCTGACGAGTCCCAAATAGGACGAAACGCGC
modifications: expressed or natural sequence

Tested on: Renilla luciferase RNA
Experiment: Barcoded aptazyme variant library screen: un-cleaved Renilla luciferase RNA by barcode read counts, HEK293-T cells
Assay type: cell-based
Conditions: un-cleaved Renilla luciferase RNA by barcode read counts; with 1 mM theophylline (ON) over without theophylline (OFF); HEK293-T cells; triplicate
In short: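 Aptazyme variants (seven theophylline aptamers inserted after each T3H48 ribozyme nucleotide, 9-nt barcoded) cloned into the 3′ UTR of Renilla luciferase in psiCHECK-2; cells cultured ± theophylline, in triplicate. RNA and DNA barcodes amplified and sequenced; normalized read counts gave un-cleaved RNA fraction and ON/OFF fold-change.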

Molecule	Fold change in RNA expression between the ON state and the OFF state
B1	0.7
B2	0.7
B3	0.7
B4	0.7
B5	0.6
B6	0.7
B7	0.7
B8	0.7
B9	0.7
B10	0.7
B11	0.7
B12	0.7
B13	0.6
B14	0.7
B15	0.6
B16	0.6
B17	0.7
B18	0.7
B19	0.7
B20	0.7
B21	0.6
B22	0.6
B23	0.7
B24	0.7
B25	0.7

Same assay, conditions: un-cleaved Renilla luciferase RNA, HEK293-T cells cultured with 1 mM theophylline (ON) over without theophylline (OFF); barcode read counts, triplicate

Molecule	Fold change in RNA expression between the ON state and the OFF state [fold]
B26	2.1
B27	2.1
